Experimental data published in patent US20020198143A1 (Human Genome Sciences, published 2002).

Target: T1, human B7-H3 protein expressed on transfected 293 cells (human, UniProt Q5ZPR3 29-534)
T1 construct: also called B7-H3/293 cells
T1 sequence: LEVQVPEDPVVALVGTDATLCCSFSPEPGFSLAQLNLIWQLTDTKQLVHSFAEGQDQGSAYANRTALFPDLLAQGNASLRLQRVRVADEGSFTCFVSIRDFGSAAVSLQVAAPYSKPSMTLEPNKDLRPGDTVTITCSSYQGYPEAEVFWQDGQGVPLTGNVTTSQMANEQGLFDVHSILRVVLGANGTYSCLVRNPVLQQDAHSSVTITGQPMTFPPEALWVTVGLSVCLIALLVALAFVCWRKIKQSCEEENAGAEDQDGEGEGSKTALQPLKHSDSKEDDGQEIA
Test: FACS on 293 cells transfected with B7-H3
From the text: It has been reported that both CTLA-4 nd ICOS can be induced to express on the surface of activated T cells, while CD28 expresses constitutively.

B1: ICOSIg (Fc fusion, UniProt Q9Y6W8 21-140, looked up)
chain: EINGSANYEMFIFHNGGVQILCKYPDIVQQFKMQLLKGGQILCDLTKTKGSGNTVSIKSLKFCHSQLSNNSVSFFLYNLDHSHANYYFCNLSIFDPPPFKVTLTGGYLHIYESQLCCQLK
notes: extracellular domain; not shown: Fc constant region of mouse IgG2a, inferred from 'similar methods'
binding result: no binding
